# Results: the supplement of paper PMC10219994
# ± gives the standard deviation of the averaged measurements.
# B1: library; a variant is named by its letters at N, in order (parent)
# chain: GAGACCGCAACTGAAAAGTTGTGGNNNNNATAGTGAGTCGCTGCCTGCAAAGACACAACT
# Variants of: B1
# Experiment: ligation selection enrichment (abundance after / before one-round selection) (fold); higher = more template-directed ligation activity
# Conditions: with T7Psub CACGGAUGCUAAUACGACUCACUAUA; MgCl2 25 mM; 42 °C; 4 h; pH 8.5
# Protocol: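 Lib-N5 ligase ribozyme library: five randomized core nucleotides (including the GGA motif of N8-1) within the fixed N8-1 ribozyme flanks, transcribed by T7 RNA polymerase with a 5'-triphosphate. The library (0.75 uM) was reacted with substrate T7Psub (6 uM) in 50 mM EPPS pH 8.5 with 25 mM MgCl2 at 42 C for 4 h. Ligated products were PAGE-purified, reverse transcribed and MiSeq sequenced; enrichment = abundance after selection / abundance before selection, with two independent replicates. The full transcript is built from the printed template flanks.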
row,Variant,ligation selection enrichment
1,GAGACCGCAACTGAAAAGTTGTGGGTAGGATAGTGAGTCGCTGCCTGCAAAGACACAACT,0.422 ± 0.043
2,GAGACCGCAACTGAAAAGTTGTGGGGACGATAGTGAGTCGCTGCCTGCAAAGACACAACT,0.725 ± 0.049
3,GAGACCGCAACTGAAAAGTTGTGGGTACAATAGTGAGTCGCTGCCTGCAAAGACACAACT,0.288 ± 0.094
4,GAGACCGCAACTGAAAAGTTGTGGGGGTAATAGTGAGTCGCTGCCTGCAAAGACACAACT,0.445 ± 0.024
5,GAGACCGCAACTGAAAAGTTGTGGATCAAATAGTGAGTCGCTGCCTGCAAAGACACAACT,0.518 ± 0.024
6,GAGACCGCAACTGAAAAGTTGTGGGATAAATAGTGAGTCGCTGCCTGCAAAGACACAACT,0.189 ± 0.036
7,GAGACCGCAACTGAAAAGTTGTGGTTTTTATAGTGAGTCGCTGCCTGCAAAGACACAACT,0.314 ± 0.091
8,GAGACCGCAACTGAAAAGTTGTGGTTTTCATAGTGAGTCGCTGCCTGCAAAGACACAACT,0.167 ± 0.027
9,GAGACCGCAACTGAAAAGTTGTGGATTCGATAGTGAGTCGCTGCCTGCAAAGACACAACT,3.01 ± 0.51
10,GAGACCGCAACTGAAAAGTTGTGGATGACATAGTGAGTCGCTGCCTGCAAAGACACAACT,1.69 ± 0.044
11,GAGACCGCAACTGAAAAGTTGTGGATGATATAGTGAGTCGCTGCCTGCAAAGACACAACT,34.6 ± 8.1
12,GAGACCGCAACTGAAAAGTTGTGGTCCGCATAGTGAGTCGCTGCCTGCAAAGACACAACT,0.113 ± 0.026
13,GAGACCGCAACTGAAAAGTTGTGGAACAGATAGTGAGTCGCTGCCTGCAAAGACACAACT,0.2191 ± 0.00078
14,GAGACCGCAACTGAAAAGTTGTGGGGTCCATAGTGAGTCGCTGCCTGCAAAGACACAACT,0.277 ± 0.02
15,GAGACCGCAACTGAAAAGTTGTGGCCGGAATAGTGAGTCGCTGCCTGCAAAGACACAACT,0.278 ± 0.019
16,GAGACCGCAACTGAAAAGTTGTGGCCCACATAGTGAGTCGCTGCCTGCAAAGACACAACT,0.168 ± 0.017
17,GAGACCGCAACTGAAAAGTTGTGGTGCAGATAGTGAGTCGCTGCCTGCAAAGACACAACT,0.216 ± 0.0033
18,GAGACCGCAACTGAAAAGTTGTGGTTTGCATAGTGAGTCGCTGCCTGCAAAGACACAACT,0.319 ± 0.085
19,GAGACCGCAACTGAAAAGTTGTGGACAACATAGTGAGTCGCTGCCTGCAAAGACACAACT,0.224 ± 0.024
20,GAGACCGCAACTGAAAAGTTGTGGAGGACATAGTGAGTCGCTGCCTGCAAAGACACAACT,14.4 ± 2.2
21,GAGACCGCAACTGAAAAGTTGTGGAAGGTATAGTGAGTCGCTGCCTGCAAAGACACAACT,0.203 ± 0.15
22,GAGACCGCAACTGAAAAGTTGTGGAAGGGATAGTGAGTCGCTGCCTGCAAAGACACAACT,0.331 ± 0.0073
23,GAGACCGCAACTGAAAAGTTGTGGCCTGCATAGTGAGTCGCTGCCTGCAAAGACACAACT,0.128 ± 0.01

row,Variant,ligation selection enrichment
1,GAGACCGCAACTGAAAAGTTGTGGCCGTTATAGTGAGTCGCTGCCTGCAAAGACACAACT,0.149 ± 0.04
2,GAGACCGCAACTGAAAAGTTGTGGGTGCCATAGTGAGTCGCTGCCTGCAAAGACACAACT,0.209 ± 0.022
3,GAGACCGCAACTGAAAAGTTGTGGGTGCGATAGTGAGTCGCTGCCTGCAAAGACACAACT,2.12 ± 0.13
4,GAGACCGCAACTGAAAAGTTGTGGTCCCTATAGTGAGTCGCTGCCTGCAAAGACACAACT,0.324 ± 0.076
5,GAGACCGCAACTGAAAAGTTGTGGAGCTTATAGTGAGTCGCTGCCTGCAAAGACACAACT,0.149 ± 0.13
6,GAGACCGCAACTGAAAAGTTGTGGAATGGATAGTGAGTCGCTGCCTGCAAAGACACAACT,0.467 ± 0.097
7,GAGACCGCAACTGAAAAGTTGTGGGCGCTATAGTGAGTCGCTGCCTGCAAAGACACAACT,0.519 ± 0.19
8,GAGACCGCAACTGAAAAGTTGTGGTAGATATAGTGAGTCGCTGCCTGCAAAGACACAACT,15.6 ± 3.6
9,GAGACCGCAACTGAAAAGTTGTGGCGCAAATAGTGAGTCGCTGCCTGCAAAGACACAACT,0.29 ± 0.03
10,GAGACCGCAACTGAAAAGTTGTGGTAAGCATAGTGAGTCGCTGCCTGCAAAGACACAACT,0.165 ± 0.016
11,GAGACCGCAACTGAAAAGTTGTGGGGGCCATAGTGAGTCGCTGCCTGCAAAGACACAACT,0.243 ± 0.0042
12,GAGACCGCAACTGAAAAGTTGTGGAAGTAATAGTGAGTCGCTGCCTGCAAAGACACAACT,0.24 ± 0.059
13,GAGACCGCAACTGAAAAGTTGTGGCAATAATAGTGAGTCGCTGCCTGCAAAGACACAACT,0.143 ± 0.036
14,GAGACCGCAACTGAAAAGTTGTGGTTTAGATAGTGAGTCGCTGCCTGCAAAGACACAACT,0.504 ± 0.034
15,GAGACCGCAACTGAAAAGTTGTGGACCCAATAGTGAGTCGCTGCCTGCAAAGACACAACT,0.152 ± 0.013
16,GAGACCGCAACTGAAAAGTTGTGGGAAGAATAGTGAGTCGCTGCCTGCAAAGACACAACT,0.306 ± 0.024
17,GAGACCGCAACTGAAAAGTTGTGGGAAGCATAGTGAGTCGCTGCCTGCAAAGACACAACT,0.167 ± 0.033
18,GAGACCGCAACTGAAAAGTTGTGGTCAACATAGTGAGTCGCTGCCTGCAAAGACACAACT,0.48 ± 0.05
19,GAGACCGCAACTGAAAAGTTGTGGGTTTTATAGTGAGTCGCTGCCTGCAAAGACACAACT,0.277 ± 0.048
20,GAGACCGCAACTGAAAAGTTGTGGTCCTGATAGTGAGTCGCTGCCTGCAAAGACACAACT,0.246 ± 0.011
21,GAGACCGCAACTGAAAAGTTGTGGTGTTAATAGTGAGTCGCTGCCTGCAAAGACACAACT,0.2185 ± 0.00099
22,GAGACCGCAACTGAAAAGTTGTGGGCAAGATAGTGAGTCGCTGCCTGCAAAGACACAACT,0.562 ± 0.043
23,GAGACCGCAACTGAAAAGTTGTGGGAACCATAGTGAGTCGCTGCCTGCAAAGACACAACT,0.225 ± 0.032

row,Variant,ligation selection enrichment
1,GAGACCGCAACTGAAAAGTTGTGGACTATATAGTGAGTCGCTGCCTGCAAAGACACAACT,0.119 ± 0.05
2,GAGACCGCAACTGAAAAGTTGTGGCGCGTATAGTGAGTCGCTGCCTGCAAAGACACAACT,0.237 ± 0.0082
3,GAGACCGCAACTGAAAAGTTGTGGCGCGAATAGTGAGTCGCTGCCTGCAAAGACACAACT,1.1 ± 0.18
4,GAGACCGCAACTGAAAAGTTGTGGTAGGGATAGTGAGTCGCTGCCTGCAAAGACACAACT,0.637 ± 0.12
5,GAGACCGCAACTGAAAAGTTGTGGTGTCCATAGTGAGTCGCTGCCTGCAAAGACACAACT,0.338 ± 0.055
6,GAGACCGCAACTGAAAAGTTGTGGTGGGTATAGTGAGTCGCTGCCTGCAAAGACACAACT,0.417 ± 0.23
7,GAGACCGCAACTGAAAAGTTGTGGTCGTTATAGTGAGTCGCTGCCTGCAAAGACACAACT,0.205 ± 0.12
8,GAGACCGCAACTGAAAAGTTGTGGACGCGATAGTGAGTCGCTGCCTGCAAAGACACAACT,0.622 ± 0.021
9,GAGACCGCAACTGAAAAGTTGTGGACGCCATAGTGAGTCGCTGCCTGCAAAGACACAACT,0.153 ± 0.035
10,GAGACCGCAACTGAAAAGTTGTGGTTGTAATAGTGAGTCGCTGCCTGCAAAGACACAACT,0.685 ± 0.11
11,GAGACCGCAACTGAAAAGTTGTGGCTCCCATAGTGAGTCGCTGCCTGCAAAGACACAACT,0.0937 ± 0.042
12,GAGACCGCAACTGAAAAGTTGTGGCGCCGATAGTGAGTCGCTGCCTGCAAAGACACAACT,0.43 ± 0.033
13,GAGACCGCAACTGAAAAGTTGTGGCGCCCATAGTGAGTCGCTGCCTGCAAAGACACAACT,0.161 ± 0.004
14,GAGACCGCAACTGAAAAGTTGTGGCGCCAATAGTGAGTCGCTGCCTGCAAAGACACAACT,0.146 ± 0.048
15,GAGACCGCAACTGAAAAGTTGTGGAGTACATAGTGAGTCGCTGCCTGCAAAGACACAACT,0.492 ± 0.1
16,GAGACCGCAACTGAAAAGTTGTGGAGTATATAGTGAGTCGCTGCCTGCAAAGACACAACT,6.55 ± 1.2
17,GAGACCGCAACTGAAAAGTTGTGGATCTAATAGTGAGTCGCTGCCTGCAAAGACACAACT,0.203 ± 0.01
18,GAGACCGCAACTGAAAAGTTGTGGTGAACATAGTGAGTCGCTGCCTGCAAAGACACAACT,0.25 ± 0.0069
19,GAGACCGCAACTGAAAAGTTGTGGTTACGATAGTGAGTCGCTGCCTGCAAAGACACAACT,0.5128 ± 0.0029
20,GAGACCGCAACTGAAAAGTTGTGGTCATGATAGTGAGTCGCTGCCTGCAAAGACACAACT,0.1699 ± 0.0013
21,GAGACCGCAACTGAAAAGTTGTGGATTGGATAGTGAGTCGCTGCCTGCAAAGACACAACT,0.805 ± 0.035
22,GAGACCGCAACTGAAAAGTTGTGGTGTATATAGTGAGTCGCTGCCTGCAAAGACACAACT,1.97 ± 0.21
23,GAGACCGCAACTGAAAAGTTGTGGCTACCATAGTGAGTCGCTGCCTGCAAAGACACAACT,0.116 ± 0.021

row,Variant,ligation selection enrichment
1,GAGACCGCAACTGAAAAGTTGTGGGCAGTATAGTGAGTCGCTGCCTGCAAAGACACAACT,0.0918 ± 0.00069
2,GAGACCGCAACTGAAAAGTTGTGGATAGCATAGTGAGTCGCTGCCTGCAAAGACACAACT,0.131 ± 0.033
3,GAGACCGCAACTGAAAAGTTGTGGTGCCTATAGTGAGTCGCTGCCTGCAAAGACACAACT,0.408 ± 0.18
4,GAGACCGCAACTGAAAAGTTGTGGTCTTGATAGTGAGTCGCTGCCTGCAAAGACACAACT,0.678 ± 0.067
5,GAGACCGCAACTGAAAAGTTGTGGTCACTATAGTGAGTCGCTGCCTGCAAAGACACAACT,0.427 ± 0.28
6,GAGACCGCAACTGAAAAGTTGTGGGCCCGATAGTGAGTCGCTGCCTGCAAAGACACAACT,0.803 ± 0.034
7,GAGACCGCAACTGAAAAGTTGTGGGAGCCATAGTGAGTCGCTGCCTGCAAAGACACAACT,0.172 ± 0.0044
8,GAGACCGCAACTGAAAAGTTGTGGCAAGAATAGTGAGTCGCTGCCTGCAAAGACACAACT,0.182 ± 0.036
9,GAGACCGCAACTGAAAAGTTGTGGTCGCGATAGTGAGTCGCTGCCTGCAAAGACACAACT,0.485 ± 0.036
10,GAGACCGCAACTGAAAAGTTGTGGACTTGATAGTGAGTCGCTGCCTGCAAAGACACAACT,0.918 ± 0.18
11,GAGACCGCAACTGAAAAGTTGTGGTACAAATAGTGAGTCGCTGCCTGCAAAGACACAACT,0.211 ± 0.08
12,GAGACCGCAACTGAAAAGTTGTGGTACAGATAGTGAGTCGCTGCCTGCAAAGACACAACT,0.393 ± 0.092
13,GAGACCGCAACTGAAAAGTTGTGGCGAAGATAGTGAGTCGCTGCCTGCAAAGACACAACT,0.4199 ± 0.0032
14,GAGACCGCAACTGAAAAGTTGTGGCGGAAATAGTGAGTCGCTGCCTGCAAAGACACAACT,1.02 ± 0.075
15,GAGACCGCAACTGAAAAGTTGTGGTTCGTATAGTGAGTCGCTGCCTGCAAAGACACAACT,0.267 ± 0.029
16,GAGACCGCAACTGAAAAGTTGTGGTAGCGATAGTGAGTCGCTGCCTGCAAAGACACAACT,0.52 ± 0.11
17,GAGACCGCAACTGAAAAGTTGTGGTAGCAATAGTGAGTCGCTGCCTGCAAAGACACAACT,0.21 ± 0.016
18,GAGACCGCAACTGAAAAGTTGTGGCCTCCATAGTGAGTCGCTGCCTGCAAAGACACAACT,0.347 ± 0.0045
19,GAGACCGCAACTGAAAAGTTGTGGATTTTATAGTGAGTCGCTGCCTGCAAAGACACAACT,0.4707 ± 0.0023
20,GAGACCGCAACTGAAAAGTTGTGGATTTCATAGTGAGTCGCTGCCTGCAAAGACACAACT,0.201 ± 0.0059
